Data as given in patent publication US20260207704A1, “STAPLED PEPTIDES AND METHODS THEREOF” (priority 2022, published 2026).
*1 amine or outer side, *2 acyl side, *3 side chain or, on linkers, in order; H or OH if unused. Bridges are numbered along the chain shown (N, C = ends). Primed or numbered codes have the meaning given here. [ ]: non-standard residue; d: D form. PyrS2(6) = (S)-3-amino-1-((pent-4-en-1-yloxy)carbonyl)pyrrolidine-3-carboxylic acid, stapled with another olefin-containing amino acid residue through the olefin group, O=C(OCCCC=[*:3])N1CC[C@@](N[*:1])(C(=O)[*:2])C1; B5(4) = 2-amino-2-(pent-4-en-1-yl)hept-6-enoic acid, stapled through each of its two olefin groups with other olefin-containing amino acid residues, O=C(C(CCCC=[*:3])(CCCC=[*:4])N[*:1])[*:2]; PyrS2″ = (S)-3-amino-1-((pent-4-en-1-yloxy)carbonyl)pyrrolidine-3-carboxylic acid (olefin stapling residue), C=CCCCOC(=O)N1CC[C@@](N[*:1])(C(=O)[*:2])C1; PyrS2 = (S)-3-amino-1-((pent-4-en-1-yloxy)carbonyl)pyrrolidine-3-carboxylic acid, olefin staple residue, C=CCCCOC(=O)N1CC[C@@](N[*:1])(C(=O)[*:2])C1; PyrS2(5) = (S)-3-amino-1-((pent-4-en-1-yloxy)carbonyl)pyrrolidine-3-carboxylic acid, C=CCCCOC(=O)N1CC[C@@](N[*:1])(C(=O)[*:2])C1; B5″ = 2-amino-2-(pent-4-en-1-yl)hept-6-enoic acid (bis-olefin stapling residue), C=CCCCC(CCCC=C)(N[*:1])C(=O)[*:2]; B5(5) = 2-amino-2-(pent-4-en-1-yl)hept-6-enoic acid (two olefin arms), C=CCCCC(CCCC=C)(N[*:1])C(=O)[*:2]; Phe(3-COOH) = N[C@@H](Cc1cccc(C(=O)O)c1)C(=O)O; 2F3MeF = Cc1cccc(C[C@H](N[*:1])C(=O)[*:2])c1F; Bta = N[C@@H](Cc1csc2ccccc12)C(=O)O; αAllylPro = C=CC[C@@]1(C(=O)O)CCCN1; tBuAla = CC(C)(C)C[C@H](N)C(=O)O; 3Thi = N[C@@H](Cc1ccsc1)C(=O)O; TriAzLys(3) = not defined here; hSer = N[C@@H](CCO)C(=O)O; 2F3MeF(4) = Phe analogue; AsnR = not defined here; GlnR = not defined here; sAla = not defined here; B5 = not defined here; Aib = CC(C)(N)C(=O)O

T1: beta-catenin (human, UniProt B6V8E6 146-665 (dog entry), limits assumed)
T1 sequence: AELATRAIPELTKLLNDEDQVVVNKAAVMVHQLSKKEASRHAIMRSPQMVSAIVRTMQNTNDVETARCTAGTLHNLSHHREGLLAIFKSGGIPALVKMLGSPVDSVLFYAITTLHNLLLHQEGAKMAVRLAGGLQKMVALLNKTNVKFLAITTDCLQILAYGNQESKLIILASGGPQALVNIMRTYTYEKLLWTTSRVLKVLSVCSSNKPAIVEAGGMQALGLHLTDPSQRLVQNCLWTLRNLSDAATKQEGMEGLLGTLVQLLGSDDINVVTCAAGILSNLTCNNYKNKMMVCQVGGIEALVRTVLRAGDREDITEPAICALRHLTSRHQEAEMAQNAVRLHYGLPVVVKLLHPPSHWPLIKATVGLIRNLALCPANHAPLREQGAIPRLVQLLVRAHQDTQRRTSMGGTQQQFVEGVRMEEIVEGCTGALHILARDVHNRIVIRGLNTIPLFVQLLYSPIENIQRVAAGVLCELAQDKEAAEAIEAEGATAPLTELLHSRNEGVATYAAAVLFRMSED


Legend:
beta-catenin (human) = experiment: fluorescence polarization; bin >750 nM
beta-catenin = biological target: T1, beta-catenin; experiment: cell-based or functional assay

Row | Binder | IC50 (beta-catenin (human)) [nM] | further results
1 | Ac-[αAllylPro][hSer][tBuAla][B5″]D[Phe(3-COOH)][Aib]AFK[PyrS2″][2F3MeF][Bta][GlnR]LS-NH2 (bridge 10-14; reading uncertain; also: PL3-B5 and PyrS2 links not placed, printed as Ac-PL3-Hse-Npg-B5-Asp-3COOHF-Aib-Ala-Phe-Lys*3-PyrS2-2F3MeF-BztA-GlnR*3-Leu-Ser-NH2) [I-147] | < 1000 | –
2 | Ac-[αAllylPro]D[tBuAla][B5(4)]DD[sAla]AF[TriAzLys(3)][PyrS2(6)][3Thi][Bta]Q-NH2 (triazole 7-10; not fully specified (bridges); printed as Ac-PL3-Asp-Npg-B5-Asp-Asp-sAla*3-Ala-Phe-TriAzLys*3-PyrS2-3Thi-BztA-Gln-NH2; reading uncertain) [I-26] | < 1000 | –
3 | Ac-[αAllylPro]D[tBuAla][B5(4)]D[Phe(3-COOH)][sAla]AF[TriAzLys(3)][PyrS2(6)][2F3MeF(4)][Bta]Q-NH2 (triazole 7-10; not fully specified (bridges); printed as Ac-PL3-Asp-Npg-B5-Asp-3COOHF-sAla*3-Ala-Phe-TriAzLys*3-PyrS2-2F3MeF-BztA-Gln-NH2; reading uncertain) [I-28] | < 1000 | –
4 | Ac-[αAllylPro]D[tBuAla][B5(5)]D[Phe(3-COOH)]AAF[AsnR][PyrS2(5)][3Thi][Bta]K-NH2 (bridge 10-14; not fully specified (bridges); printed as Ac-PL3-Asp-Npg-B5-Asp-3COOHF-Ala-Ala-Phe-AsnR*3-PyrS2-3Thi-BztA-Lys*3-NH2; reading uncertain) [I-35] | < 1000 | –
5 | Ac-[αAllylPro]D[tBuAla][B5(5)]D[Phe(3-COOH)]AAF[AsnR][PyrS2(5)][3Thi][Bta]KA-NH2 (bridge 10-14; reading uncertain; also: PL3/B5/PyrS2 staple links not placed, printed as Ac-PL3-Asp-Npg-B5-Asp-3COOHF-Ala-Ala-Phe-AsnR*3-PyrS2-3Thi-BztA-Lys*3-Ala-NH2) [I-44] | < 1000 | –
6 | Ac-[αAllylPro]D[tBuAla][B5]D[Phe(3-COOH)]AAFL[PyrS2][2F3MeF][Bta]Q-NH2 (staple 1-4, 4-11; not fully specified; reading uncertain) [Peptide A] | – | AXIN2 expression IC50, COLO320DM cells (beta-catenin): 1400 nM; AXIN2 expression IC50, DLD1 cells (beta-catenin): 9300 nM; SP5 expression IC50, DLD1 cells (beta-catenin): 9000 nM
